According to PMC5700927, “Heme enables proper positioning of Drosha and DGCR8 on primary microRNAs” (Nature Communications, 2017):

Key:
[1] = biological target: the molecule itself; assay: SEC-MALS; isolated DGCR8; Superdex 200 Increase 10/300; 20 mM Tris pH 8.0, 750 mM NaCl, 1 mM TCEP, 10% glycerol; wild-type sample heme-deficient (Apo); heme-saturated samples inconclusive and not reported
[2] = biological target: the molecule itself; assay: AUC; sedimentation velocity of isolated DGCR8; 0.1-1 mg/mL; 20 mM Tris pH 8.0, 500 mM NaCl, 1 mM TCEP; 142,000 x g, about 16 h; wild-type sample heme-saturated
[3] = biological target: the molecule itself; assay: AUC; sedimentation velocity of purified co-expressed Drosha/DGCR8 complex; 0.1-1 mg/mL; 20 mM Tris pH 8.0, 500 mM NaCl, 1 mM TCEP; 72,400 x g, about 16 h
[4] = biological target: the molecule itself; assay: SEC-MALS; purified co-expressed Drosha/DGCR8 complex; Superdex 200 Increase 10/300; 20 mM Tris pH 8.0, 750 mM NaCl, 1 mM TCEP, 10% glycerol
[5] = biological target: T1, Drosha (residues 353-1372) (human, UniProt Q9NRR4 353-1372); assay: as above; conditions: both partners purified
T1 construct: Drosha (RNase III), human, residues 353-1372 (CED, two RIIID domains, dsRBD); also called the Drosha chain of MP^Heme, MP^Apo, MP^C352S, MP^ΔHBR and MP^CTT
T1 sequence (looked up): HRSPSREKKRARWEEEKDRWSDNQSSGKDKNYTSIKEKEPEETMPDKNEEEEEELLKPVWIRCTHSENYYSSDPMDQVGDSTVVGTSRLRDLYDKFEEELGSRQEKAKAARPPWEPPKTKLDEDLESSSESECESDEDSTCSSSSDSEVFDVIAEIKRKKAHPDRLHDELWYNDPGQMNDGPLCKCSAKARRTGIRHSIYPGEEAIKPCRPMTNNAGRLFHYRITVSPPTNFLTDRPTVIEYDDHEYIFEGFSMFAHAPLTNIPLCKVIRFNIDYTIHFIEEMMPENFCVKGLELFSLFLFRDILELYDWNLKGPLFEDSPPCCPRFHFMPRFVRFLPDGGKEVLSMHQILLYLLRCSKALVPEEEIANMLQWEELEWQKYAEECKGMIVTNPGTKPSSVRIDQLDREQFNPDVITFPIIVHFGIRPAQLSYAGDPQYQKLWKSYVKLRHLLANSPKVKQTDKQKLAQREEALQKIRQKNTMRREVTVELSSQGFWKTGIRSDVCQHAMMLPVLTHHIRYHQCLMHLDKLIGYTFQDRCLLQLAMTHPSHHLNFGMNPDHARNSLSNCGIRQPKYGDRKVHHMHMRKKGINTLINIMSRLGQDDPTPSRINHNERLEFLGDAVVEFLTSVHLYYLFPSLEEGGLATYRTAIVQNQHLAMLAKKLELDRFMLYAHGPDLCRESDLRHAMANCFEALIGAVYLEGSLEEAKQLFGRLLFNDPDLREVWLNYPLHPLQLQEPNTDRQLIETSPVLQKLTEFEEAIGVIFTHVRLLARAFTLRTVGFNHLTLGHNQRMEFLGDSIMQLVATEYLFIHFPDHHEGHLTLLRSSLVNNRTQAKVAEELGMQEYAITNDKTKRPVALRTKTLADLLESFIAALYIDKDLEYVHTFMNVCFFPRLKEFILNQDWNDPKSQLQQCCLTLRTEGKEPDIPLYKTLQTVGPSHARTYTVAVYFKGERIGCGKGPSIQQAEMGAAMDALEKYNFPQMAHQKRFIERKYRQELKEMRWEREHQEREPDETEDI

B1: DGCR8 (residues 223-751), isolated, wild type (domain or fragment, human, UniProt Q8WYQ5 223-751, looked up)
chain: AIVQRDRVDEEALNFPYEDDFDNDVDALLEEGLCAPKKRRTEEKYGGDSDHPSDGETSVQPMMTKIKTVLKSRGRPPTEPLPDGWIMTFHNSGVPVYLHRESRVVTWSRPYFLGTGSIRKHDPPLSSIPCLHYKKMKDNEEREQSSDLTPSGDVSPVKPLSRSAELEFPLDEPDSMGADPGPPDEKDPLGAEAAPGALGQVKAKVEVCKDESVDLEEFRSYLEKRFDFEQVTVKKFRTWAERRQFNREMKRKQAESERPILPANQKLITLSVQDAPTKKEFVINPNGKSEVCILHEYMQRVLKVRPVYNFFECENPSEPFGASVTIDGVTYGSGTASSKKLAKNKAARATLEILIPDFVKQTSEEKPKDSEELEYFNHISIEDSRVYELTSKAGLLSPYQILHECLKRNHGMGDTSIKFEVVPGKNQKSEYVMACGKHTVRGWCKNKRVGKQLASQKILQLLHPHVKNWGSLLRMYGRESSKMVKQETSDKSVIELQQYAKKNKPNLHILSKLQEEMKRLAEEREETRK
notes: DGCR8, human, residues 223-751 (HBR, two dsRBDs, C-terminal tail); also called DGCR8^Heme; DGCR8^Apo; source: E. coli BL21 (DE3) Rosetta, pET21, purified (Ni-NTA, cation exchange, size exclusion); 5 uM hemin Cl in the media for heme-saturated protein
B1 was tested, and the “stoichiometry N” value [1] was 2 and the “stoichiometry N” value [2] was 2.

B2: DGCR8 (residues 223-751) C352S, isolated (domain or fragment, human, UniProt Q8WYQ5 223-751, looked up)
chain: AIVQRDRVDEEALNFPYEDDFDNDVDALLEEGLCAPKKRRTEEKYGGDSDHPSDGETSVQPMMTKIKTVLKSRGRPPTEPLPDGWIMTFHNSGVPVYLHRESRVVTWSRPYFLGTGSIRKHDPPLSSIPSLHYKKMKDNEEREQSSDLTPSGDVSPVKPLSRSAELEFPLDEPDSMGADPGPPDEKDPLGAEAAPGALGQVKAKVEVCKDESVDLEEFRSYLEKRFDFEQVTVKKFRTWAERRQFNREMKRKQAESERPILPANQKLITLSVQDAPTKKEFVINPNGKSEVCILHEYMQRVLKVRPVYNFFECENPSEPFGASVTIDGVTYGSGTASSKKLAKNKAARATLEILIPDFVKQTSEEKPKDSEELEYFNHISIEDSRVYELTSKAGLLSPYQILHECLKRNHGMGDTSIKFEVVPGKNQKSEYVMACGKHTVRGWCKNKRVGKQLASQKILQLLHPHVKNWGSLLRMYGRESSKMVKQETSDKSVIELQQYAKKNKPNLHILSKLQEEMKRLAEEREETRK
notes: also called DGCR8^C352S; source: E. coli BL21 (DE3) Rosetta, pET21, purified (Ni-NTA, cation exchange, size exclusion)
With B2 the “stoichiometry N” value [1] was 2 and the “stoichiometry N” value [2] was 2.

B3: DGCR8 (residues 223-751), wild type, co-expressed with Drosha (domain or fragment, human, UniProt Q8WYQ5 223-751, looked up)
chain: AIVQRDRVDEEALNFPYEDDFDNDVDALLEEGLCAPKKRRTEEKYGGDSDHPSDGETSVQPMMTKIKTVLKSRGRPPTEPLPDGWIMTFHNSGVPVYLHRESRVVTWSRPYFLGTGSIRKHDPPLSSIPCLHYKKMKDNEEREQSSDLTPSGDVSPVKPLSRSAELEFPLDEPDSMGADPGPPDEKDPLGAEAAPGALGQVKAKVEVCKDESVDLEEFRSYLEKRFDFEQVTVKKFRTWAERRQFNREMKRKQAESERPILPANQKLITLSVQDAPTKKEFVINPNGKSEVCILHEYMQRVLKVRPVYNFFECENPSEPFGASVTIDGVTYGSGTASSKKLAKNKAARATLEILIPDFVKQTSEEKPKDSEELEYFNHISIEDSRVYELTSKAGLLSPYQILHECLKRNHGMGDTSIKFEVVPGKNQKSEYVMACGKHTVRGWCKNKRVGKQLASQKILQLLHPHVKNWGSLLRMYGRESSKMVKQETSDKSVIELQQYAKKNKPNLHILSKLQEEMKRLAEEREETRK
notes: DGCR8, human, residues 223-751; Two copies per Drosha in the complex (heterotrimer); Heme-saturated in MP^Heme, heme-deficient in MP^Apo; also called DGCR8^Heme; DGCR8^Apo; source: MP^Apo separated from MP^Heme by repeated ion exchange
B3 was tested, and the “stoichiometry N” value [3] was 2.

B4: DGCR8 (residues 223-751) C352S, co-expressed with Drosha (domain or fragment, human, UniProt Q8WYQ5 223-751, looked up)
chain: AIVQRDRVDEEALNFPYEDDFDNDVDALLEEGLCAPKKRRTEEKYGGDSDHPSDGETSVQPMMTKIKTVLKSRGRPPTEPLPDGWIMTFHNSGVPVYLHRESRVVTWSRPYFLGTGSIRKHDPPLSSIPSLHYKKMKDNEEREQSSDLTPSGDVSPVKPLSRSAELEFPLDEPDSMGADPGPPDEKDPLGAEAAPGALGQVKAKVEVCKDESVDLEEFRSYLEKRFDFEQVTVKKFRTWAERRQFNREMKRKQAESERPILPANQKLITLSVQDAPTKKEFVINPNGKSEVCILHEYMQRVLKVRPVYNFFECENPSEPFGASVTIDGVTYGSGTASSKKLAKNKAARATLEILIPDFVKQTSEEKPKDSEELEYFNHISIEDSRVYELTSKAGLLSPYQILHECLKRNHGMGDTSIKFEVVPGKNQKSEYVMACGKHTVRGWCKNKRVGKQLASQKILQLLHPHVKNWGSLLRMYGRESSKMVKQETSDKSVIELQQYAKKNKPNLHILSKLQEEMKRLAEEREETRK
notes: also called DGCR8^C352S; the DGCR8 chain of MP^C352S
In the case of B4, the “stoichiometry N” value [4] is reported as 2 and the “stoichiometry N” value [3] is reported as 2.

B5: DGCR8^ΔHBR (residues 489-751), co-expressed with Drosha (domain or fragment, human, UniProt Q8WYQ5 489-751, looked up)
chain: LITLSVQDAPTKKEFVINPNGKSEVCILHEYMQRVLKVRPVYNFFECENPSEPFGASVTIDGVTYGSGTASSKKLAKNKAARATLEILIPDFVKQTSEEKPKDSEELEYFNHISIEDSRVYELTSKAGLLSPYQILHECLKRNHGMGDTSIKFEVVPGKNQKSEYVMACGKHTVRGWCKNKRVGKQLASQKILQLLHPHVKNWGSLLRMYGRESSKMVKQETSDKSVIELQQYAKKNKPNLHILSKLQEEMKRLAEEREETRK
notes: DGCR8, human, residues 489-751 (tandem dsRBDs and C-terminal tail, no HBR); One copy per Drosha in MP^ΔHBR; also called DGCR8 lacking the HBR; the DGCR8 chain of MP^ΔHBR
In the case of B5, the “stoichiometry N” value [5] is reported as 1.
